Test results taken from PMC4954698.

What was measured:
[1] = biological target: Glutamate decarboxylase (GAD) from Escherichia coli K12, produced in media supplemented with pyridoxine hydrochloride (GAD-V) (E. coli str. K12 substr. MG1655) (UniProt P69910); assay: SEC; Superdex 200 10/300GL, 20 mM citric acid-Na2HPO4 buffer pH 6.5 with 0.15 mM PLP, 0.4 mL/min, calibrated with molecular weight standards; native molecular weight about 324 kDa
[2] = biological target: Glutamate decarboxylase (GAD) from Escherichia coli K12, produced without pyridoxine hydrochloride supplementation (GAD-C) (E. coli str. K12 substr. MG1655) (UniProt P69910); assay: as above

“Glutamate decarboxylase (GAD) from Escherichia coli K12, produced in media supplemented with pyridoxine hydrochloride (GAD-V) (from UniProt P69910 1-466) (enzyme)” gave a stoichiometry N [1] of 6.
In the case of “Glutamate decarboxylase (GAD) from Escherichia coli K12, produced without pyridoxine hydrochloride supplementation (GAD-C) (from UniProt P69910 1-466) (enzyme)”, the stoichiometry N [2] is reported as 6.
